# In patent US20230357364A1 (INTERNATIONAL AIDS VACCINE INITIATIVE, published 2023):
# How the values were obtained:
# Experiment in all cases: cell-based or functional assay
# [1] = molecular target: T1, SARS-CoV-2 spike D614G (pseudovirus) (SARS-CoV-2, UniProt P0DTC2 14-1273)
# [2] = molecular target: SARS-CoV-2 spike G476S (pseudovirus) (SARS-CoV-2, UniProt P0DTC2 14-1273)
# [3] = molecular target: SARS-CoV-2 spike V483A (pseudovirus) (SARS-CoV-2, UniProt P0DTC2 14-1273)
# [4] = molecular target: T1, SARS-CoV-2 spike D614G (pseudovirus); remark: listed apart in the source
# [5] = molecular target: SARS-CoV-2 spike V367F (pseudovirus) (SARS-CoV-2, UniProt P0DTC2 14-1273)
Binder,neutralization IC50 [1],neutralization IC50 [2],neutralization IC50 [3],PSV in HeLa-ACE2 cells IC50 [4],neutralization IC50 [5]
"L6.dP04A03 (antibody, V domains shown) VH: QVQLVQSGAEVKKPGSSVKVSCKASGGTFSSSAISWVRQAPGQGLEWMGGIIPILDITNYAQKFQGRVTITADKSTSTAFMELSSLRSEDTAVYYCALRNQWDLLVYWGQGTLVTVSS VL: not shown",24 ng/mL,84 ng/mL,160 ng/mL,,
"L6.P4A3.1 (antibody, V domains shown) VH: QVQLVQSGAEVKKPGSSVKVSCKASGGIFSSSAISWVRQAPGQGLEWMGGIIPILDISNYAQKFQGRVTITADKSTSTAFMELSSLRSEDTAVYYCALTNQWDLLVYWGQGTLVTVSS VL: EIVLTQSPGTLSLSPGERATLSCRASQRVSSSYLAWYQQKPGQAPRLLIYGAESRATGIPDRFSGSGSGTDFTLTISRLEPEDFAVYYCQHYGSSLWTFGQGTKLEIK",,,,13 ng/mL,
"L6.dP03H10 (antibody, V domains shown) VH: QVQLVQSGAEVKKPGSSVKVSCKASGGTFSIYAITWVRQAPGQGLEWMGGIIPIIGTANYAQKFQGRVTITADKSTSTAYMELSSLRSEDTAVYYCARDFRYCSSTRCYFWFDPWGQGTLVTVSS VL: DIQMTQSPSSLSASVGDRVTITCRASQNISSYLNWYQQEAGKAPKLLIYAASSLQSGVPSRFSGSGSGTDFTLTISSLQPEDFATYYCQQSYSTPRTFGQGTKVDIK",1.9 ng/mL,0.08 ng/mL,1.9 ng/mL,,0.25 ng/mL
"L6.dP02E05 (antibody, V domains shown, human IgG1) VH: QVQLVQSGSELKKPGASVKVSCKASGYTFATYALNWVRQAPGQGLEWMGWVNTNTGSPTYAQGFTGRFVFSFDTSVSTAYLQIRTLKAEDTAVYYCAVYYYDSGSPGWFDPWGQGTLVTVSS VL: DIQLTQSPSSLSASVGDRVTITCRASQTASSYLNWYQQKPGKAPNLLIYAASSLQSGVPSRFSGSGSVTDFTLTISSLQPEDFATYYCQQSYSTPPTFGQGTKVDIK",3.9 ng/mL,,3.9 ng/mL,,0.04 ng/mL
"L6.dP04E05 (antibody, V domains shown, human IgG1) VH: EVQLVESGGGLVQPGRSLRLSCAASGFTFDDYAMHWVRQAPGKGLEWVSGISWNSDNIGYADSVKGRFTVSRDNAKNSLYLQMNSLRAEDTALYYCTKDIHRKNDYYDILTGYYRVRYYYYAMDVWGQGTTVTVSS VL: QSVLTQPPSASGSPGQSVTISCTGTSSDAGGYNYVSWYQQHPGKAPKLMIYEVIKRPSGVPDRFSGSKSGNTASLTVSGLQAEDEADYYCSSFAGTSVVFGGGTKLTVL",0.52 ng/mL,0.16 ng/mL,0.55 ng/mL,8 ng/mL,0.07 ng/mL
